The data set can be described thus: protein stability index of a GFP-peptide fusion (GPS, HEK-293T) (PSI 1-6); higher = more stable. The note with it: c terminus: a fixed tail appended.

± gives the standard deviation.
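Further: 24-mer peptide tiles fused after GFP, lentivirally expressed, FACS-sorted into six equal bins by GFP/DsRed ratio, decoded by Illumina sequencing, PSI is the read-weighted mean bin number.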

For HVPLQRLSLLVHNVSVMHKSLDNM [FBXO33], the protein stability index reads like this: (treatment: DMSO) 2.01 ± 0.22; (treatment: MLN4924 1 uM, 8 h) 2.3 ± 0.12.
Taken in the same sequence, the figures for HVPTVWAIDQYRVCQEVLERSRDV [RHOBTB1] were 2.83 ± 0.22 and 3.08 ± 0.3.
In the same order, the values of HVTVENVQELLPAACLLQLKGVKQ [KLHL12] are 2.96 ± 0.33 and 3.15 ± 0.11.
In the same order, the values of HWDGYSKGVNRKLGRTGLYPSYKV [FUT8] are 2.5 ± 0.32 and 2.53 ± 0.18.
For the sequence IAQCQDSPTSGKFRRGSGSACSLL [MCOLN1], the protein stability index by setting is: (treatment: DMSO) 3.4 ± 0.2; (treatment: MLN4924 1 uM, 8 h) 3.63 ± 0.2.
In the same order, the values of IATATEIAYYSYIYSVVDLGMYQK [SLC19A2] are 3.05 ± 0.33 and 2.94 ± 0.51.
Taken in the same sequence, the figures for IDKSMTVVLTFITPMLNPLIYTLK [OR4A15] were 3.67 ± 0.16 and 2.8 ± 1.
Take IDLATWNFQFLPQVNGHPDPFDEI [PTPN9]: the protein stability index is, setting by setting: (treatment: DMSO) 2.43 ± 0.22; (treatment: MLN4924 1 uM, 8 h) 2.54 ± 0.35.
The sequence IDNAADLLIFGKELSAIGSDTTPL [SNX8] returned a protein stability index (treatment: DMSO) of 3.22 ± 0.12 and a protein stability index (treatment: MLN4924 1 uM, 8 h) of 3.18 ± 0.48.
In the same order, the values of IDRNLREDGEKAAREVKLLLLGAG [GNAI1] are 3.67 ± 0.23 and 3.58 ± 0.096.
Taken in the same sequence, the figures for IDYKTTTILLDGQRVKLKLWDTSG [RAB40A] were 2.27 ± 0.07 and 2.36 ± 0.2.
Taken in the same sequence, the figures for IEADRRRAQLHVQGLLHEAGSTDD [SPNS1] were 4.87 ± 0.18 and 5.1 ± 0.33.
Turning to IFSIVFVFFVCFVPYHIARIPYTK [P2RY14], the protein stability index by setting is: (treatment: DMSO) 3.1 ± 0.21; (treatment: MLN4924 1 uM, 8 h) 3 ± 0.49.
Taken in the same sequence, the figures for IIDSSRSVNTHDYAKVKEFIVDIL [MATN2] were 2.23 ± 0.2 and 2.37 ± 0.22.
In the same order, the values of IIELLASDAGSPSLHKHLTIRLNI [PCDHGC5] are 3.12 ± 0.48 and 3.15 ± 0.6.
In the same order, the values of IISGVSKVPIAQDELALSLGYAAS [C2CD2L] are 2.58 ± 0.3 and 2.55 ± 0.32.
Take IKRAEDYGPVEVISHWHPNITINI [CLPTM1]: the protein stability index (treatment: DMSO) was found to be 3.11 ± 0.39 and the protein stability index (treatment: MLN4924 1 uM, 8 h) stood at 2.68 ± 0.14.
On to IKSSLKDEYQYSFWDLFRSKDNMR [SLC2A12], for which the protein stability index came out at 2.39 ± 0.23 (treatment: DMSO) and 2.3 ± 0.21 (treatment: MLN4924 1 uM, 8 h).
In the same order, the values of ILFVNSEFETLYNEHKSCEEKSVK [CLK3] are 2.74 ± 0.25 and 3.05 ± 0.3.
In the same order, the values of ILIALVGATPSYHWDLAELLPNQS [SLC22A15] are 2.85 ± 0.43 and 2.9 ± 0.75.
In the same order, the values of ILVQTPESESPQSHRAAGSGVSDY [TRIM9] are 4.49 ± 0.37 and 4.49 ± 0.21.
As for INKIAGHPLAQNERCLHMFLQEEA [SNX12], the protein stability index is 3.07 ± 0.12 (treatment: DMSO) and 3.3 ± 0.17 (treatment: MLN4924 1 uM, 8 h).
Regarding IPKSSDPEMRWNKGTILKASVDYI [TFE3], the protein stability index (treatment: DMSO) amounted to 2.79 ± 0.32 and the protein stability index (treatment: MLN4924 1 uM, 8 h) amounted to 3.03 ± 0.26.
In the case of IPPKEFHFRHPKRSVSLSMRKSGA [BNIP3L], the protein stability index is, setting by setting: (treatment: DMSO) 3.37 ± 0.34; (treatment: MLN4924 1 uM, 8 h) 3.77 ± 0.34.
In the same order, the values of IRAAKGLDQALKEGGKLPPPPPPS [ZC2HC1A] are 4.35 ± 0.24 and 4.48 ± 0.4.
Take IRLVDDAFGKICHMVSDGSWVVRV [INTS4]: the protein stability index runs as follows: (treatment: DMSO) 3.07 ± 0.46; (treatment: MLN4924 1 uM, 8 h) 2.98 ± 0.54.
Taken in the same sequence, the figures for ISHQQCWASTSPGTDLPLSEIPRG [TRIM15] were 3.51 ± 0.21 and 3.63 ± 0.53.
In the same order, the values of ISLEERRAQLPKYQRNLPRPGQAP [ZNF207] are 3.41 ± 0.12 and 3.67 ± 0.32.
In the same order, the values of ISPGRVYEYTSCTTFSTTSGYMEG [FBXO3] are 2.78 ± 0.22 and 2.69 ± 0.36.
Consider ITGAYDTIKHPGGAGAEESELQAY [MCOLN1], for which the protein stability index is, setting by setting: (treatment: DMSO) 4.84 ± 0.19; (treatment: MLN4924 1 uM, 8 h) 5.02 ± 0.19.
In the same order, the values of ITRESHTHRDRPSQQQPLRNQVVS [CSNK1G1] are 4.49 ± 0.21 and 4.37 ± 0.23.
Taken in the same sequence, the figures for IVNSTEESDDAFDTVTIPVPSEEP [IQUB] were 5.5 ± 0.25 and 5.55 ± 0.21.
With IYAYDAKIEIQTLTGLFKGDKCHS [CASP6], the protein stability index runs as follows: (treatment: DMSO) 2.14 ± 0.7; (treatment: MLN4924 1 uM, 8 h) 2.26 ± 0.23.
Taken in the same sequence, the figures for IYTHFTCATDTKNVQFVFDAVTDV [GNAI1] were 2.55 ± 0.46 and 3.28 ± 1.5.
Taken in the same sequence, the figures for KANSPLKGHERTVQYLQHLGTENL [VPS39] were 3.85 ± 0.3 and 3.71 ± 0.31.
For KAPDIECVLRCSVLEIEQSMNRVK [FEM1B], the protein stability index runs as follows: (treatment: DMSO) 2.3 ± 0.41; (treatment: MLN4924 1 uM, 8 h) 2.55 ± 0.51.

For the origin of these results see the supplement of paper PMC10567573.
